Target: Complex IV (cytochrome c oxidase complex) of T. gondii (Toxoplasma gondii | Toxoplasma gondii (endogenous in the parasites))
Experiment: native gel or EMSA

Substance	reduction of the abundance of the complex against the cWT-containing complex (no ATc) [%]
cFLAG-TgApiCox13^H49Q (natural protein)	75
cFLAG-TgApiCox13^H85Q (natural protein)	45
